# Source: US12291578B2, “Anti-matrix metalloproteinase 7 (MMP-7) inhibitory antibody and uses thereof” (Yeda Research and Development Co. Ltd., priority 2019, dated 2025)
# Entries after “also recorded” stand apart in the source; their conditions may differ. Where two headings read alike, the source gives them in different places.
# B1: GSM-192 Fab: Fab fragment of GSM-192 obtained by papain digestion (antibody, V domains shown)
# VL: DIVTQSPASLAVSLGQRATISCRASESFDSYGNTFVHWYQQKPGQPPKLLIYLVSNLESGVPAGFRGRGSRTDFTLTIDPVEADDAATYYCQQNNEDPYTFGGGTKLEIKRA
# VH: EVQLQQSGPELVKPGASVKIPCKASGYTFTDYNMDWMKQSHGKSLEWIGHINPNNGGTFYNQKFKDKATFIVDKSSNTAYMELRSLTSEDTAVYFCARGGGLRRGPFAYWGQGTLVTVS
# Columns and labels:
# AsPC-1 cells [1] = assay: Gemcitabine co-treatment, MTT cell death assay; assay type: cell-based; conditions: Homo sapiens, ASPC1, 72 h
# Protocol: Gemcitabine co-treatment: 10,000 AsPC-1 cells/well were seeded into 96 well flat bottom plate and incubated overnight at in a humidified incubator at 37° C. with 5% CO2. Media in wells were replaced by serum free RPMI medium containing 2.33 μM GSM-192 or PBS and 0.05, 0.1, 0.5, 1, 5, 10, 40 and 80-μM gemcitabine. The plates were further incubated for 72 hours in a humidified incubator at 37° C. with 5% CO2. MTT solutions (M5655 SIGMA) was added at 10% of total culture volume (0.5 mg/ml MTT in RPMI/IMDM without phenol red) and after 3 hours incubation, plate was washed with PBS and solubilized using MTT solvent (0.1 N HCl in anhydrous isopropanol). The read out was obtained at […]. Cell death data was plotted as a function of the log of Gemcitabine concentration and fitted on a variable slope sigmoidal regression model (GraphPad prism 8.3.0). Further, an average of IC50 from 3 experimental repeats and corresponding standard deviation was calculated.
# FasL in AsPC-1 cells = assay: Western blot of FasL expression in cell lysates; assay type: cell-based, human; conditions: AsPC-1 cell lysates, 24 hours, sub lethal concentrations
# Protocol: Western Blots: Treated cells were lysed with RIPA buffer containing protease inhibitors and shaken intermittently while stored in ice for 30 min. The debris was removed by centrifugation at 14,000×g and supernatant was used for BCA protein determination assay. Alternatively, culture supernatants were concentrated at least 10 times using 0.2 μm centricons. Once normalized to equal protein content, sample buffer was added and heated for 3 minutes at 95° C. The denatured samples were centrifuged for 5 min at 14,000×g before 25 μL was loaded onto SDS page gel and standard blotting procedures were followed (General Protocol for Western Blotting, BioRad bulletin 6376). Primary Abs used were MMP-7 (abcam, ab5706), Fas-L (abcam, ab15285), α Tubulin Ab (sc31779).
# Anti LOXL-2 (Lysyl Oxidase like 2) mAb33, produced in a similar pipeline was used as an isotype control. […] To test for molecular markers of apoptosis, Fas ligand expression was analysed by Western blot analysis. AsPC-1 cells were treated with GSM-192 Fab for 24 hours at sub lethal concentrations.
# AsPC-1 cells [2] = assay: FACS Annexin-V apoptosis detection assay; assay type: cell-based, human; conditions: AsPC-1, 24 h, increasing dose
# Protocol: FACS Annexin-V apoptosis detection assay: 70% confluent cells in 6 cm plates were treated with sterile GSM-192 Fab fragment/control anti LOXL-2 Fab fragment for 24 h and prepared for FACS using the Annexin-V FITC apoptosis detection kit (E Biosciences 88-8005-72) as described previously^53. The FACS acquisition was done using FACS LSR-II machine in Cell Quant software (Becton Dickinson) and further analysis on FlowJo software (Treestar, Inc., San Carlos, Calif.).
# MMP-9 = MMP-9 (Homo sapiens, UniProt P14780); assay: Enzymatic activity of related MMPs (fluorogenic peptide); assay type: biochemical; conditions: in vitro
# Protocol: (§1) MMP-7 enzymatic kinetic assay: The enzymatic activity of MMP-7 in the presence of GSM-192 Fab was measured at 37° C. by monitoring the hydrolysis of fluorogenic peptide Mca-Pro-Leu-Gly-Leu-Dpa-Ala-Arg-NH2 (SEQ ID NO: 10) at λex=340 nm and […] as described previously^30. A range of different concentrations of GSM-192 Fab (0-200 nM) were incubated with 10 nM of MMP-7 in 50 mM Tris-HCl buffer (pH 7.5 at 37° C.), 100 mM NaCl, 5 mM CaCl2, and 0.05% Brij-35 for 2 h at 37° C. The enzymatic reaction was initiated by addition of the fluorogenic peptide to a final concentration of 10 μM. Fluorescence was recorded immediately and continuously for 30 min.
# (§2) Remarkably, considering that the immunization booster also included the common zinc motif, the antibody is fully selective for MMP-7. The effect of GSM-192 Fab fragment on the enzymatic activity of human MMP-7 was examined in vitro using a short fluorogenic peptide according to a standard protocol. The enzymatic activity of recombinant active MMP-7 was measured in the presence of increasing concentrations of the Fab fragment of GSM-192. […] Simultaneously the effect of the antibody on catalytic activity of related MMPs was measured.
# MMP-12 = MMP-12 (Homo sapiens, UniProt P39900); assay: as above; assay type: biochemical; conditions: in vitro
# Protocol: as §1, §2
# MMP-14 = MMP-14 (Homo sapiens, UniProt P50281); assay: as above; assay type: biochemical; conditions: in vitro
# Protocol: as §1, §2
# Chain of MMP-12 (P39900 106-470): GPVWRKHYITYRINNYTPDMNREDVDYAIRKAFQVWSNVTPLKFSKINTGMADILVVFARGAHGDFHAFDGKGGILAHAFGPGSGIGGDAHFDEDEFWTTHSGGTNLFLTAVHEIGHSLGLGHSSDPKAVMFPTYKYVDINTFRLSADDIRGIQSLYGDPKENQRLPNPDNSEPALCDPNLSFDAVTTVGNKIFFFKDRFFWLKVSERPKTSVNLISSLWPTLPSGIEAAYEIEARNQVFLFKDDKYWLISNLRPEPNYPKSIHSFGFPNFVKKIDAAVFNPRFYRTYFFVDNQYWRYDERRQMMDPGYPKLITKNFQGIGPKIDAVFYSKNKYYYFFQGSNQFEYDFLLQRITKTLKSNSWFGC
# Chain of MMP-9 (P14780 94-707, species assumed): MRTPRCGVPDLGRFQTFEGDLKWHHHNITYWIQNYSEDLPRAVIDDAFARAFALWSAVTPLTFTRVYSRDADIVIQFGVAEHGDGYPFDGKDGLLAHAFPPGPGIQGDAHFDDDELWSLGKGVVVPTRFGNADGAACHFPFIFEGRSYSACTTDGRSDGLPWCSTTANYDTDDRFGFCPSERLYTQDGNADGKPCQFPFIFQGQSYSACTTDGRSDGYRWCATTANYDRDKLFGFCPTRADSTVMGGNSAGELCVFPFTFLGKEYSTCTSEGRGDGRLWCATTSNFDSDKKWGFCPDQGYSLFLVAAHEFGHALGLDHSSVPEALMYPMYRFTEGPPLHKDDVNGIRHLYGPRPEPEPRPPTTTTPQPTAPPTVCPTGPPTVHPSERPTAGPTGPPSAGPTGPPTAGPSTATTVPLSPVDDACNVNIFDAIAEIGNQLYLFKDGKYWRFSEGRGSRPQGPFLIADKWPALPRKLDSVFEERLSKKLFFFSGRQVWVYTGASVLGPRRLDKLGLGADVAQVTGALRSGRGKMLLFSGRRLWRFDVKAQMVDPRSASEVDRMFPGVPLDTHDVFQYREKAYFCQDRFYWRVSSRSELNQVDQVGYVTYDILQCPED
Molecule,"IC50 (AsPC-1 cells [1]; GEM+PBS group, 72 hours) [nM]","IC50 (AsPC-1 cells [1]; co-treatment with 2.33 uM GSM-192, 72 hours, read-out: IC50 of GEM) [nM]",FasL expression (FasL in AsPC-1 cells),FasL expression (FasL in AsPC-1 cells; listed as anti MMP-7 Fab),Annexin V related apoptosis (AsPC-1 cells [2]),effect on catalytic activity of MMP-9 (MMP-9),effect on catalytic activity of MMP-12 (MMP-12),effect on catalytic activity of MMP-14 (MMP-14)
"Nc1ccn([C@@H]2O[C@H](CO)[C@@H](O)C2(F)F)c(=O)n1 [GEM, gemcitabine]",127 ± 40.5,14.2 ± 1.52,–,–,–,–,–,–
B1,–,–,increase of Fas ligand (FasL) expression,overall increase in FasL levels,induce cell death via apoptosis; also recorded: increased Annexin V related apoptosis,not affected,not affected,only negligibly affected
